Substrate: O=C(O)C(=O)O
Assay: purified protein
Conditions: 0.5 mM CoA, 5 mM ATP, 10 mM MgCl2, 2 mM DTT, 0.1 M Tris-HCl or NaPO4 pH 8.0, sodium oxalate as substrate

B1: GsAAE3 (Glycine max) (protein)
chain: MKDTMETPTTLTTLLRHVAAKFPSRRAISVAAKFDLTHSRLHRLVESAAAQLVSAGVKPGDVVALTFPNTIEFVVMFLAVIRARATAAPLNSAYTAEEFEFYLSDSESKLLLTSPEGNKPAQAAASKLSIPHATASITKAENEEAELSLSLLNHPELNSVNSVESLVNDPDDVALFLHTSGTTSRPKGVPLTQYNLLSSVKNIDSVYRLTESDSTVIVLPLFHVHGLIAGLLSSLGAGAAVALPAAGRFSASAFWKDMIKYSATWYTAVPTIHQIILDRHSSNPEPVYPRLRFIRSCSASLAPVILGKLEEAFGAPVLEAYAMTEASHLMASNPLPQDGAHKSGSVGKPVGQEMGILDESGRVQEAGISGEVCIRGSNVTKGYKNNVAANTASFLFDWFHTGDIGYFDSDGYLHLVGRIKELINRGGEKISPIEVDAVLLSHPEIAQAVAFGVPDAKYGEEIYCAVIPREGSNVDEAEVLRFSKTNLASFKVPKKVFITDSLPKTATGKILRRLVAEHFVSQI
Question: With B1 as the protein, how does the Km read?
Answer: Its Km is 105.10 ± 12.30 µM.

Source: PMC7700444
